Test: label from the status in PepcDB records

Row | Sequence | protein production
1 | MSRNPEVLWAQRSDKVYLTVALPDAKDISVKCEPQGLFSFSALGAQGERFEFSLELYGKIMTEYRKNVGLRNIIFSIQKEERSWWTRLLKSEEKPAPYIKVDWNKWCDEDEEVNSETASDDESAFVNQDSESSDDDGLLYLPDLEKARNK | not failed
2 | MSRNYKEDQTNEVEALDSIYCGDMEILATEPHHKFQIPIATEEYSSEEPEKGLACKLVFTFTATYPDGAPVVEIEEPENFEDMFETRLLEHLQKTIEENLGMEMIFSLVSSAQEWLNERWDEHKFHQEELREQKLREIEEEERKKFEGTRVTVESFLKWKLEFEESTGIAAKREKNNVSKKQTGRELFMCDNTLNDSDIKFLLEAGENIENVKIDETLFQDIGELDLDDDDDEDWVPGADDDDD | failed
3 | MSRPDDIDVRPIAEAETADWIRALNTGFLRSPEVSEREVADRSSYLVPARTLGAFDNGRCVATFRSFPQELTAVGGASVPADAISNVTVTATHRRRGLLTRMMAQDLAAAKERGDVVATLIAAEYPIYGRYGFGAATHSTEWTIDVPRTGLDPRWSGPGDGGRIDLVDGEDVRKAGPELHERLRRTQPGAVSRDERWWQVHTGVVRLDRSPWTEPFYAVYRSASGEVEGLVSYECDDHWGDAKQPQNTAKVNWLIATTPAAERALWHYLCSIDWITKVRTGWRAPDDLLPHFLPDPRAARVTTHADWLWVRILDVVRALEARTYDGSGTLVLDVVDRHGLAGGRYRLTVGPDGAVCEPTTRDAGLTLDVGELAALWLGDASAVRLAALGRVREQQEGAASVADALLRTSGRPWCPDMF | not failed
4 | MSRQIFYMPFSLRFLFLLIIITIFGLGSLFLGVIVSAFMKIGFSAEDALLILFLSLLGSGINIPLTTLKSDIPVVKDNYIKFFGISYRIPTRQIVRNETLLAINVGGAVIPVLISAYLLTQFPSSLLLAGAGVAIVAIVTHSVARPIKGVGIATPALIPPLTSVLSAVLLTSIVHIPGCPAEPCRVIIAYTGGVLGTLIGADLLNLGKIKNLGAPVASIGGAGTFDGIFLSGFIALLLI | failed
5 | MSRSAFTALLLSCVLLALSMPARADDLPYRFGLGKADITGEAAEVGMMGYSSLEQKTAGIHMRQWARAFVIEEAASGRRLVYVNTDLGMIFQAVHLKVLARLKAKYPGVYDENNVMLAATHTHSGPGGFSHYAMYNLSVLGFQEKTFNAIVDGIVRSIERAQARLQPGRLFYGSGELRNANRNRSLLSHLKNPDIVGYEDGIDPQMSVLSFVDANGELAGAISWFPVHSTSMTNANHLISPDNKGYASYHWEHDVSRKSGFVAAFAQTNAGNLSPNLNLKPGSGPFDNEFDNTREIGLRQFAKAYEIAGQAQEEVLGELDSRFRFVDFTRLPIRPEFTDGQPRQLCTAAIGTSLAAGSTEDGPGPLGLEEGNNPFLSALGGLLTGVPPQELVQCQAEKTILADTGNKKPYPWTPTVLPIQMFRIGQLELLGAPAEFTVMAGVRIRRAVQAASEAAGIRHVVFNGYANAYASYVTTREEYAAQEYEGGSTLYGPWTQAAYQQLFVDMAVALRERLPVETSAIAPDLSCCQMNFQTGVVADDPYIGKSFGDVLQQPRESYRIGDKVTVAFVTGHPKNDLRTEKTFLEVVNIGKDGKQTPETVATDNDWDTQYRWERVGISASKATISWSIPPGTEPGHYYIRHYGNAKNFWTQKISEIGGSTRSFEVLGTTP | failed
6 | MSRSALSFAVFLAVVLSILGGMHAYLWLRLVRDPGLPEPWRRTGTVLLALLAVAIPVGMFSVRLASGWAARWLPVAAFTWLGLAFILFCAVAAIDLARLSAQLALFMGDWLRQVPDPPADPGRRLFVARAVAGGAVIAAGGSAALAFRSATGPAEIHEVAVRLDRLPPALSGLTIAQISDLHVGPAIREREVRRVVEQTNALRPDVVAITGDLVDGSVRELGHAVAELARLRARHGVFFVTGNHEYYSGVDAWVAELQRLGIRVLRNERVTVGDAGASIDLAGVDDWSSGQFGNGHGMNLPRALDGRDPDRSLVLLAHQPRAIGEAVRAGVELQLSGHTHGGQIFPFNLLVRAAYPYVKGLYPHAEGSAHGQIFVSRGTGYWGPPMRLGSPPEIARIVLT | failed
7 | MSSDAIETIETYLRPGAWVEDAAGPLYVRLRKRIEQGIDSGLLAKSAPLPAEREIASLTGLSRVTVRRAMQELVDRGIIVQRQGSGSFVADAAPRVEQSLSHLTSFTEDMERRGLNVTSEWLTRGVFIPSPEEVMALALSSGEQVARVARLRRAEGRPMAIERASLPTDILPDPELVSSSLYAVLERDGNRPVRALQRISAVNLGAEDAALLGVEPGTAGLRIIRTSYLPNRRVIEYTRSLYRADAYDFVAELRLGNS | failed
8 | MSSDDAWTAAALPDQSGRRVVVTGANSGLGFEATRAFARAGAHVVMACRSTERGEDARDDIVAELPGASLTVHELDLAALDSVAAFADWFTAEFDSLHVLANNAGVMAIPRSETADGFETQFGVNHLGHVALTAGLLGVLRRTSGETRVVTQSSGAHRRGRIDFEDLQHEAEYGKWEAYSQSKLANLLFAYELDRRLRAASASVTSVACHPGYAATNLQLRGPQAAGSRLRLLAMRAANALVGQSAEQGAWPLLYAATNPSIDGGEYIGPGGVLNMRGHPERQQPSARSRDEDTARRLWTVSADRTGVDFDLPDPA | failed
9 | MSSERLIYLPLGGAGEIGMNAYVYGYGKPDAERLIVVDMGVAFPDMDGSPGVDLILPDITWLQERRDRIEAVFVTHAHEDHVGAVAHTYEKLGAPVYARAFTANIARRKMAEHGHPEDAVHTVSPWPETVSAGPFKVSFLPISHSIPESSAMVIDTPEGRVIHSGDFKLDETPLVGEAFDPELWAEVSKEGVKALICDSTNVFSQHPGRSEASVGPEITNLVQSAEGMVVATTFASNVARVKTLADAGVRAGRSIVLMGRAMRRMIEAAAETGVLQDFPSVVSPEDARSIPRENLMLLVTGSQGERRAASAQLARGKYQGMEMKEGDLFPFSSKTIPGNEKGVIRIINAFSELGVDVVDDSSGLYHVSGHANRPDLERLSEIVNPQVVIPMHGEHRHLREHVKIAEQNGRTGVLAVNGMMVDLSGNQPKIAEYVETGRTYLDGTVQIGALDGVVRDRIRMALNGHVVVTLIVDEDDEPLGDPWCELKGLPETGRSKASLVDVLEADLGQWLGRADPKTMRDDDKLNEGLRRVVRQTSQDEIGKKPEVSVIVSRLS | failed
10 | MSSFFTGKDDSAVEELLSQAKDQYVLEQVAKINCSGFTDDTALPTNPETRLRRLKSLPVSRTDSVSSSPKKLLSHSNSMASHPEKKYRGNVSSVSSFSIQVGKSCPLDSSVEETQIFSKTKRNQSVKSRGGLGESSGSKRIGSSSSRFSCGNVSSTGSSSSRFSREGNISTATKTLKLPC | not failed
11 | MSSKPLLTLQELAAQNILRNEALAISALQYLPELFLPQLLKQAYDGNHLKVLRAIVSSWPFPRLPLGALKKRTPYLETQLQVVLEEVDKLLIQEVHPREYKLEVLDLRSVGQNYLNVWPGAMDDWLPKTTQTDPCCSKTVMTQPLKVLVDLQLNNRGQSRLFSYLVQWSDRRKGLLQLYCNKLQIWSPSQQNYRKLSQKVNLDYVETLGLHSSCSPSFLLNFAPYLRQMRNLRKLALSNIREEHIISPEKRRCIITRFTLQILKLESLQKLHLDAVCFLEGHLDQLLGSVKTSLDELAVTHCNLSVSEWSHFSEFPCVSQLQQLNLENVRLTGLSPEPLQVLLVKAGPTLVALDLEDCHLEDGQLYAILPALSKCFKLTKFSFYGNQISMLAMKDLLHHTASLIHLRLELYPVPQDSYDYHGTPLMQRMQQHCDELMNLLKTFRNPGRVFFGTDRCDQCCNRYIYNKTIMCNCRRSY | failed
12 | MSSKQHCVKLNDGHLIPALGFGTYKPKEVPKSKSLEAACLALDVGYRHVDTAYAYQVEEEIGQAIQSKIKAGVVKREDLFVTTKLWCTCFRPELVKPALEKSLKKLQLDYVDLYIMHYPVPMKSGDNDFPVNEQGKSLLDTVDFCDTWERLEECKDAGLVKSIGVSNFNHRQLERILNKPGLKYKPVCNQVECHLYLNQRKLLDYCESKDIVLVAYGALGTQRYKEWVDQNSPVLLNDPVLCDVAKKNKRSPALIALRYLIQRGIVPLAQSFKENEMRENLQVFGFQLSPEDMKTLDGLNKNFRYLPAEFLVDHPEYPFVEEY | not failed
13 | MSSLRHRRYVLGGLLAAIGVLAAAVLWNVVGTVFFAVTVAYVLYPARQRLVNRGVPRRVASGLLTAAAFLTVVVLLAPIAWTIFRQRGAILEFLNNLPDELPVEAFGFVVTIDVADLVDTTADTLQSIAISLAADAIFLALQLLMFALVLYGLLLRPNAVGRAAFRVTPSPYHDILVALHRRIAGTLYALYVIQAATAVITFPLALIVFYLLGYPDVFVLAVLAALLQFIPIVGPGMLAAGLAGHDVLVGMPHRAVGVIILGPLFVGLLPDLLVRPRLAASKAKLPASLYFVGFVGGVLTVGVIGIIAGPLVVALLVEAVNLLSERNQSAA | failed
14 | MSSMNANAENSESKPKSGNDPLDHEGGDSSAASEDPNKSKTVSSDDDLSETNKEKEEEDCEECWLSRYLKKGDCKDAFIEVDHCREVKDDGTNCRDARLKLITCMYTNVDYYGPFLAMQKEMRTQSLKELEQGEEAAAAAKKKEEEEETKGK | failed
15 | MSSPTRTSAKDRLSGVWALKGYKREWLRHDIVAGAALFALLVPAGMAYAQAAGLPPVTGLYATVVPLLVYAIVGPSRILVLGPDSALAPMIAAAIVPLAAGSSEKSVALAGLLAVLIGVIMLAGSALKLGTITGLLSKPIRLGYLNGIALLVLLSQLPAFFGIEADGDIWEKLAKVTTGVLGGGVNVTALLLGSGSLALIWIPRLLKWKVPGVLLAVVGSCVVTAVWGLNDDVKVTGVLPQGLPMPALGGIGWADALTLLPAAAGIALMAFADTGVLSQTLAAKEGKKVSGNREMAALGAANAATGLLGGFPISGSTSRTPVAVDAGAKSQMTGVVGSVLVLAFMLLAPGVTEYLPSATLAAVVIAAAIALADPAGVKRLLSLSRSESVVMLAAFLGVLTVGVLQGIVVAIALALLDFVRRAWDPYRTELGAEEGLPGYHDLERHPDGERIPGLLILRFDAPLFFGNGQVLAAFVREQLDEAPDETTDAITHVILAAEPITGIDTTALDDLVTLDEWLASKGVDLVFAELKGPVKDKLIHLGTAARFTPDHFFPTVGAAVRTLKNE | failed
16 | MSSQTILSVNNLSVSFTTNDGIVDAVKNVSFELQAGETLSIVGESGSGKSVSTNALMTLLPDNAIVHPDSSIMFEGESILDKTERQMQRIRGDRIGMIFQEPMTSLNPYMRVGIQVAEAMMCHRSVNQRKAKERVLELFDLVHLPNPQQAYDKYPHEFSGGQLQRIMIAMALINEPDILIADEPTTALDVTVQAEVLLLIKEIQAKMGMAILFITHDLGVVKHFADRVLVMCKGEVVEEGITEHLFSEPQHEYTKMLINSIPKGSKTPVDEKASELLNAEDIR | not failed
17 | MSSRLARFALSGYRIAGIAAYPFARPYLSYRAAKGKEDKRRRLERFGYASAERPRGPLVWFHAASVGETLALIPLIREIRKRDIFVLLTTGTVTSAELTRTRLGDDVIHQYVPLDIKIAVNRFLTYWAPDAAITAESEIWPVTMMELERRHIPQIRVNARLSDRSFDRWKARHDIAESLFSKLALVVAQSDLDAERFRDLGSWPVVISGNLKGDTDPPPCDEALLESYRKQVGNRKTWAAISTFDGEEKAAATVHAAIKSRNGQLTIIVPRHPERGDDVEAMLKGMNLSVARRSRNDVITPGTDIFLGDSIGEMGLYLRLTELAFVGRSLTAEGGQNPLEPAMLGCAVLSGAHVQNFREAYQKLIRAGGGRIIRDVEMLAKAVHYLLVNDNERYKMIDAGNRVIQDMRGALSSTVKALEPYINPLTVSAKLQPRSAIGSWLEHHHHHH | failed

From a protein production outcome set (Wang et al. 2014)
